Source: US20220153832A1 (PIONYR IMMUNOTHERAPEUTICS, published 2022)
Numbering of substitutions follows the chain as printed.

T1: N-terminally polyhistidine tagged human MARCO ECD (147-520), recombinant (human, UniProt Q9UEW3 147-520)
T1 construct: also called PI-RG-3000; recombinant human MARCO; not shown: N-terminal polyhistidine tag
T1 sequence: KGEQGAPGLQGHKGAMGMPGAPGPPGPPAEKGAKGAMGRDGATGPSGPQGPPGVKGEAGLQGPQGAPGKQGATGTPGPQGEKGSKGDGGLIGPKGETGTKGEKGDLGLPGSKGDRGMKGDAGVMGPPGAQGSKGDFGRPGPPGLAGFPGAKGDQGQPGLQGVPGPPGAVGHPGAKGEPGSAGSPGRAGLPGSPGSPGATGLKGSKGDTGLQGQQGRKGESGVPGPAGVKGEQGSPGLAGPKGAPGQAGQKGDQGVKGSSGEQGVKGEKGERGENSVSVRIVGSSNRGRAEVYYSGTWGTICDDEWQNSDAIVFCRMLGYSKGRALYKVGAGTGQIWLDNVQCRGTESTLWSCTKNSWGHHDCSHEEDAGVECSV

T2: Cynomolgus MARCO, full length, on cells (cynomolgus, UniProt A0A2K5X0Z2 1-519)
T2 construct: whole, on cells; also called cyno MARCO; CyMARCO
T2 sequence: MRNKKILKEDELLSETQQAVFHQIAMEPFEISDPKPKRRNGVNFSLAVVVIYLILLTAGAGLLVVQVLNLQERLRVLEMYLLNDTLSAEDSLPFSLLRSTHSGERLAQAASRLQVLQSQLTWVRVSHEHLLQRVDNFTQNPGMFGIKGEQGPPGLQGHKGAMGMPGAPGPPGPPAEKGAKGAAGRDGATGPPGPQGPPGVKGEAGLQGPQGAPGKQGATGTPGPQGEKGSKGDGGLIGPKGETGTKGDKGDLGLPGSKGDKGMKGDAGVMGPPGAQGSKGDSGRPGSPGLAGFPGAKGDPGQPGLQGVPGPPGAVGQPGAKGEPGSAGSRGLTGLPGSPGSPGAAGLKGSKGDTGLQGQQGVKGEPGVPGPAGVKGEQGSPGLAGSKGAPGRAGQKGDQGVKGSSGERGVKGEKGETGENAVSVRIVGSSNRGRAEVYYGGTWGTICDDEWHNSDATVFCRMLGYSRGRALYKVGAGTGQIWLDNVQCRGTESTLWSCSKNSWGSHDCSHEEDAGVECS

T3: Human Macrophage Receptor with Collagenous Structure (MARCO), full length, on cells (human, UniProt Q9UEW3 1-520)
T3 construct: the cell type is named under assay; also called huMARCO; HuMARCO
T3 sequence: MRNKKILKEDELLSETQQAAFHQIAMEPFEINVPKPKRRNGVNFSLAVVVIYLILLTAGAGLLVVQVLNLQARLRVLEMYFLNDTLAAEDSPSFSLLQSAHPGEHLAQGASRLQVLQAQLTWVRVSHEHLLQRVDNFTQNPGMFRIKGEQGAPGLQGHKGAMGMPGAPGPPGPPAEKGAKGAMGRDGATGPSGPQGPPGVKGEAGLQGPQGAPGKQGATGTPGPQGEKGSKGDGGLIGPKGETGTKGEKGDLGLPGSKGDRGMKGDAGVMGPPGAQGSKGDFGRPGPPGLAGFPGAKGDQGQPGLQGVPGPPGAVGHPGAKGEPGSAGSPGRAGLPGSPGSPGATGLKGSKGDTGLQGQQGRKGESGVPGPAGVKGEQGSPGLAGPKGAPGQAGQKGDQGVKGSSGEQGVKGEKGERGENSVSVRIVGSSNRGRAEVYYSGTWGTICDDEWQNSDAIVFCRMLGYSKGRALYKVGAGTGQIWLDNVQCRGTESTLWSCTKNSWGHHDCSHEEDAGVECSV

T4: chimera Mouse MARCO CLD-human MARCO SRCR, on cells
T4 chain: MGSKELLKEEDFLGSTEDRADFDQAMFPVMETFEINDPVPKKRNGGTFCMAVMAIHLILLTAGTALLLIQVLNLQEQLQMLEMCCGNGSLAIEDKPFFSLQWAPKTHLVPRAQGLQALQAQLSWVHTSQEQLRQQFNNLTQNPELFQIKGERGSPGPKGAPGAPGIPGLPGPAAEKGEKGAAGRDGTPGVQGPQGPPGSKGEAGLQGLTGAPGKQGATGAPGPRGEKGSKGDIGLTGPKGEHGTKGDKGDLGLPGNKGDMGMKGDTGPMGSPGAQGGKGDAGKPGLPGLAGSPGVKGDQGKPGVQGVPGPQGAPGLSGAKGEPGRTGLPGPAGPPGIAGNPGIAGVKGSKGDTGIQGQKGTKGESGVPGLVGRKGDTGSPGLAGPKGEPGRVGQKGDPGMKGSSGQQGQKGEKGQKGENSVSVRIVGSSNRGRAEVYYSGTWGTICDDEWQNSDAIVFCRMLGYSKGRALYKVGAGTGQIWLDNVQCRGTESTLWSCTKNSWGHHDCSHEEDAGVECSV

B1: PI-3030-AB (antibody, human IgG1, kappa)
heavy: not shown
light: DIQMTQSPASLSASLGETVSIECLASAGISNDLAWYQQKSGKSPQLLIYAASRLQDGVPSRFSGSGSGTRFSLKISDMQPEDEADYFCQQSYKYPWTFGGGTKLELKRTVAAPSVFIFPPSDEQLKSGTASVVCLLNNFYPREAKVQWKVDNALQSGNSQESVTEQDSKDSTYSLSSTLTLSKADYEKHKVYACEVTHQGLSSPVTKSFNRGEC
notes: Human IgG1 chimera of PI-HX-3011; also called HX3011-h1 Chimera hIgG1
B2: PI-3031-AB (antibody, human IgG1, kappa)
heavy: not shown
light: B1 light with A25T, A27E, A50D, Q55E, F71Y, D77G, P80T, W96L, G100S, L106I
notes: Human IgG1 chimera of PI-HX-3043; also called HX3043-h1 Chimera hIgG1
B3: PI-HX-3011 (antibody, rat IgG2a)
heavy: QIQLVQSGPELKKPGESVKISCKASGYTFTDYAVNWVKQAPGNGLKWMGWINTQTGKPTYADDFKQRFVFSLETSASTSFLQINNLNIEDTATYFCTRDSYYYSSSLDYWGQGVMVTVSSAETTAPSVYPLAPGTALKSNSMVTLGCLVKGYFPEPVTVTWNSGALSSGVHTFPAVLQSGLYTLTSSVTVPSSTWSSQAVTCNVAHPASSTKVDKKIVPRECNPCGCTGSEVSSVFIFPPKTKDVLTITLTPKVTCVVVDISQNDPEVRFSWFIDDVEVHTAQTHAPEKQSNSTLRSVSELPIVHRDWLNGKTFKCKVNSGAFPAPIEKSISKPEGTPRGPQVYTMAPPKEEMTQSQVSITCMVKGFYPPDIYTEWKMNGQPQENYKNTPPTMDTDGSYFLYSKLNVKKETWQQGNTFTCSVLHEGLHNHHTEKSLSHSP
light: DIQMTQSPASLSASLGETVSIECLASAGISNDLAWYQQKSGKSPQLLIYAASRLQDGVPSRFSGSGSGTRFSLKISDMQPEDEADYFCQQSYKYPWTFGGGTKLELKRADAAPTVSIFPPSTEQLATGGASVVCLMNNFYPRDISVKWKIDGTERRDGVLDSVTDQDSKDSTYSMSSTLSLTKADYESHNLYTCEVVHKTSSSPVVKSFNRNEC
notes: Parental rat hybridoma, rat IgG2a

How the values were obtained:
[1] = biological target: T5, hVar3 (RG3036) (human, UniProt Q9UEW3 147-520); assay: ELISA on hVar3
T5 construct: Human MARCO His-CLD-SRCR with Q452D, Y472S and K473S (already in the entry); also called recombinant human SRCR MARCO hVar3 protein

[2] = biological target: T1, N-terminally polyhistidine tagged human …; assay: ProbeLife Gator
Protocol: (§1) The kinetics assay used either anti-mouse Fc or anti-human Fc probes to capture the anti-MARCO antibodies onto the probe, and then a five-step kinetic protocol was used to measure the affinity of the antibodies to the antigen, including the following steps: baseline, loading, baseline, association, and dissociation. The kinetics buffer (K buffer) provided by ProbeLife was used to establish the baseline for 60 seconds, and then the anti-mFc or anti-hFc probes were loaded with 200 nM of the antibodies for 120s until the capture reached saturation, measurement of the baseline in K buffer was performed for another 60s, followed by the association step using 200 nM antigen (human MARCO, mouse MARCO or cyno MARCO), and the dissociation step performed in K buffer for 5-10 minutes. The assay was done at 37° C. to maximize antibody:antigen dissociation.

[3] = biological target: T1, N-terminally polyhistidine tagged human …; assay: KD (nM) Human; method not given
[4] = biological target: T2, Cynomolgus MARCO, full length, on cells; assay: flow cytometry, cells overexpressing cyno MARCO
[5] = biological target: T3, Human Macrophage Receptor with …; assay: flow cytometry, cells overexpressing human MARCO
Protocol: (§2) Supernatants were removed and cell pellets were resuspended in Ca²⁺+ and Mg²⁺+ Dulbecco's phosphate-buffered saline (D-PBS) at 1×10⁶ cells/ml. 100,000 cells/well were plated onto U-bottom 96-well plates for staining and all centrifugation steps were performed at 1500 rpm at 4° C. for 5 min and samples were kept protected from light throughout the protocol. Cells were pelleted and resuspended in 100 μl of Zombie NIR viability dye (BioLegend) prepared by diluting Zombie NIR dimethyl sulfoxide (DMSO) stock 1000-fold in D-PBS. Cells were stained by incubation for 10 min at room temperature (RT) in the dark, followed by quenching the staining reaction with the addition of 100 μl of Staining Medium (D-PBS containing 2% FBS and 2 mM ethylenediaminetetraacetic acid (EDTA). Cells were pelleted and resuspended in 100 μl of the different antibodies and hybridomas supernatants needed for screening and corresponding isotype controls in freshly prepared staining medium, such as PI-M014 and mIgG2b isotype. All mAbs were tested at the final top concentration of 100 nM (15 μg/ml) followed by an 8-point three-fold serial dilution, including 0 mg/ml control. Staining was carried out for 1 hour (hr) on ice, followed by 2 washes in Staining Medium. Cells were then pelleted and resuspended in 100 μl of allophycocyanin (APC)-conjugated goat anti-mouse IgG (Fc-specific) secondary antibody, prepared by 500-fold dilution of the antibody stocks in Staining Medium, and incubated for 30 min on ice. […] Flow cytometry data were analyzed using FlowJo software (version 10.6.1) and data were processed and further analyzed in Microsoft Excel and GraphPad Prism software (version 8). Half-maximal effective concentrations (EC₅₀) were calculated based on geometric mean fluorescence intensities (gMFI). In case when the plates were not able to be analyzed on the cytometer, cells were pelleted after the washes and fixed in 100 μl of 2% paraformaldehyde (PFA), prepared by diluting the 16% (w/v) stock (Thermo Fisher) in DPBS, for 15 min at RT. […]

[6] = biological target: T4, chimera Mouse MARCO CLD-human MARCO …; assay: flow cytometry, cells overexpressing HuSRCR-mouse CLD chimera
[7] = biological target: T2, Cynomolgus MARCO, full length, on cells; assay: flow cytometry, 293T (CyMARCO)
Protocol: as §2

[8] = biological target: T3, Human Macrophage Receptor with …; assay: flow cytometry, 293T (HuMARCO)
Protocol: Supernatants were removed and cell pellets were resuspended in Ca²⁺+ and Mg²⁺+ Dulbecco's phosphate-buffered saline (D-PBS) at 1×10⁶ cells/ml. 100,000 cells/well were plated onto U-bottom 96-well plates for staining and all centrifugation steps were performed at 1500 rpm at 4° C. for 5 min and samples were kept protected from light throughout the protocol. Cells were pelleted and resuspended in 100 μl of Zombie NIR viability dye (BioLegend) prepared by diluting Zombie NIR dimethyl sulfoxide (DMSO) stock 1000-fold in D-PBS. Cells were stained by incubation for 10 min at room temperature (RT) in the dark, followed by quenching the staining reaction with the addition of 100 μl of Staining Medium (D-PBS containing 2% FBS and 2 mM ethylenediaminetetraacetic acid (EDTA). Cells were pelleted and resuspended in 100 μl of the different antibodies and hybridomas supernatants needed for screening and corresponding isotype controls in freshly prepared staining medium, such as PI-M014 and mIgG2b isotype. All mAbs were tested at the final top concentration of 100 nM (15 μg/ml) followed by an 8-point three-fold serial dilution, including 0 mg/ml control. Staining was carried out for 1 hour (hr) on ice, followed by 2 washes in Staining Medium. Cells were then pelleted and resuspended in 100 μl of allophycocyanin (APC)-conjugated goat anti-mouse IgG (Fc-specific) secondary antibody, prepared by 500-fold dilution of the antibody stocks in Staining Medium, and incubated for 30 min on ice. Plates were then washed two times with Staining Medium, followed by resuspension in 150 μl of the same buffer for acquisition on the flow cytometer (Attune NxT, Life Technologies). Flow cytometry data were analyzed using FlowJo software (version 10.6.1) and data were processed and further analyzed in Microsoft Excel and GraphPad Prism software (version 8). Half-maximal effective concentrations (EC₅₀) were calculated based on geometric mean fluorescence intensities (gMFI). In case when the plates were not able to be analyzed on the cytometer, cells were pelleted after the washes and fixed in 100 μl of 2% paraformaldehyde (PFA), prepared by diluting the 16% (w/v) stock (Thermo Fisher) in DPBS, for 15 min at RT. Cells were then pelleted and the fixative was removed, followed by resuspension in 150 μl of Staining Medium and stored at 4° C. until acquisition on the flow cytometer.

[9] = biological target: T1, N-terminally polyhistidine tagged human …; assay: ELISA on recombinant human MARCO, 0 mM EDTA
Protocol: (§3) After the plates were incubated at room temperature for 1 hour or 4° C. overnight, the plates were wash 3 times with ELISA wash buffer (PBS/0.05% TWEEN-20), then hybridoma supernatant (1:5 dilution) or purified antibody (1 ug) was diluted in DPBS/Ca2+/2% FBS, DPBS without Ca2+/2 mM EDTA/2% FBS, DPBS without Ca2+/10 mM EDTA/2% FBS, and DPBS without Ca2+/50 mM EDTA/2% FBS. Plates again were incubated at room temperature for 1 hour.

[10] = biological target: T1, N-terminally polyhistidine tagged human …; assay: ELISA on recombinant human MARCO, 2 mM EDTA
Protocol: as §3

[11] = biological target: T1, N-terminally polyhistidine tagged human …; assay: ELISA on recombinant human MARCO, 10 mM EDTA
Protocol: as §3

[12] = biological target: T1, N-terminally polyhistidine tagged human …; assay: ELISA on recombinant human MARCO, 50 mM EDTA
Protocol: as §3

[13] = biological target: T1, N-terminally polyhistidine tagged human …; assay: label-free kinetics (ProbeLife Gator), mAb captured, human MARCO
Protocol: as §1
Kinetics and epitope binning analysis of the newly generated anti-human MARCO antibodies was performed as described in Example 3.

Binder	binding result [1]	koff [2]	Kd [3]	EC50 [4]	EC50 [5]	EC50 [6]	EC50 [7]	EC50 [8]	ELISA signal (A450) [9]	ELISA signal (A450) [10]	ELISA signal (A450) [11]	ELISA signal (A450) [12]	koff [13]	kon [13]
B1	no binding	0.00351 s⁻¹	0.44 nM	0.38 nM	0.55 nM	0.17 nM								
B2	no binding	0.00281 s⁻¹	0.6 nM	1.09 nM	1.6 nM	1.07 nM								
B3							0.094 nM	0.096 nM	1.17	0.0636	0.0811	0.082	0.000914 s⁻¹	401000 M⁻¹ s⁻¹
